Molecular target: Human IL13Rα2 (human, UniProt Q14627 27-380)
Test: SPR; Biacore T200; human IL13Rα1 (2,800 RU) or IL13Rα2 (3,100 RU) amine-coupled to CM5 chips in 10 mM sodium acetate pH 4.5; IL13-Fc proteins injected in twofold serial dilutions at constant flow (30 ml/min as printed); association 180 s, dissociation 600 s; regeneration 10 mM glycine pH 2.0; 1:1 fitting model
Details: both partners purified

Human IL13Rα2, sequence (Q14627 27-380): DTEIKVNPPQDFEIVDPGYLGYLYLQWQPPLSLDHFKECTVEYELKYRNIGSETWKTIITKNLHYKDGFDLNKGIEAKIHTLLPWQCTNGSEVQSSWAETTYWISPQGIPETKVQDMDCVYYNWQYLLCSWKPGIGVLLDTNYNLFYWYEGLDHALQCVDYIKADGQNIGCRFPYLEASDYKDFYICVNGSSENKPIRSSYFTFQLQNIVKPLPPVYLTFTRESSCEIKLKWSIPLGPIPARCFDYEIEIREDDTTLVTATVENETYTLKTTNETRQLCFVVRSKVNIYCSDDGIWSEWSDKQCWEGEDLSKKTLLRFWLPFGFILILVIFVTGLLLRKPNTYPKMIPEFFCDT

B1: YYB-103 IL13 (modified IL13.E13K.R66D.S69D.R109K, antigen binding domain of YYB-103) fused with human Fc (Fc fusion)
chain: SPGPVPPSTALRKLIEELVNITQNQKAPLCNGSMVWSINLTAGMYCAALESLINVSGCSAIEKTQDMLDGFCPHKVSAGQFSSLHVRDTKIEVAQFVKDLLLHLKKLFKEGQFN
modifications: Fused to human Fc (carrier left out; probably dimeric through Fc). Numbering offset +32 is the only one that fits E13, R66, S69 and R109 together. / Amine-coupled to CM5 chip; extracellular domain …
  Kd: 7.4 nM
  koff: 1.26e-05 s⁻¹
  kon: 1670 M⁻¹ s⁻¹

From article PMC8606595, “Chimeric Antigen Receptor T Cells With Modified Interleukin-13 Preferentially Recognize IL13Rα2 and Suppress Malignant Glioma: A Preclinical Study” (Frontiers in Immunology, 2021)
